Reference: patent US10188706B2, “Plasminogen activator mutants as anti-fibrinolytic agents” (HADASIT MEDICAL RESEARCH SERVICES & DEVELOPMENT LIMITED, priority 2012, dated 2019)
“Also recorded” adds a separate entry of the source.

Columns and labels:
[1] = target: T1, plasminogen (Homo sapiens, UniProt P00747); test: Ser481-Ala tPA/plasminogen protein interaction assay by co-immunoprecipitation; type: binding
T1 construct: Glu-plasminogen was prepared from human plasma; from tissue; host or cells: human plasma
Protocol: Ser^481-Ala tPA/Plasminogen Protein Interaction Assay by Co-Immunoprecipitation
Human Ser^481-Ala tPA and plasminogen, each at 100 nM final concentration in absence or presence of 1 μM uPA or fibrin degradation products, were incubated with goat polyclonal antibody to plasminogen and incubated with Protein A agarose. The protein A agarose beads were separated by centrifugation, washed, and boiled for 5 min. The beads were precipitated by centrifugation and the samples were run on NuPAGE 4-12%. As a control, 80 ng of human Ser^481-Ala tPA was loaded on the gel. The proteins from the gel were transferred onto a PVDF membrane. The membrane was blocked in milk/PBST before incubation for 1 hr with mouse monoclonal antibody to tPA. Subsequently it was washed, incubated with goat anti-mouse IgG-HRP conjugate, washed again, and detected with ECL.

[2] = tested on: WT-tPA; test: Fibrinolysis assay in human plasma derived clots, lysis by WT-tPA; type: biochemical
WT-tPA, sequence (P00750 36-562): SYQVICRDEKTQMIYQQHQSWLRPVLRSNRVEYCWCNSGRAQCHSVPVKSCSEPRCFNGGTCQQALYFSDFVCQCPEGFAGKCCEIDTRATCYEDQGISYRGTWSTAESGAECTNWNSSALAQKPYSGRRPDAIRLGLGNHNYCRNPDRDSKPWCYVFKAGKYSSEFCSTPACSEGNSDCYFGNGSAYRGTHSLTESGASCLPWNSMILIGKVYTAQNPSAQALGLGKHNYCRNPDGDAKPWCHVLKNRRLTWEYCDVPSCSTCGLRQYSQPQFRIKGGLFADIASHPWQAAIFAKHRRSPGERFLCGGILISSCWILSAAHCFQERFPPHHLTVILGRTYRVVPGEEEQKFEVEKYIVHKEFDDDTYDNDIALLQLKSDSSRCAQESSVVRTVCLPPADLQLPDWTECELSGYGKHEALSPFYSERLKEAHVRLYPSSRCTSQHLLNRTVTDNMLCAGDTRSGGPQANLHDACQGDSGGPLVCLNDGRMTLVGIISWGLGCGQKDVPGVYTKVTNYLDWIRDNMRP
Protocol: (§1) Fibrinolysis Assay in Human Plasma Derived Clots
(§2) Clots were formed by placing human plasma (200 μL) in 16-mm diameter tissue culture wells flowed by adding thrombin (0.4 U/mL final concentration). Fibrinolysis was measured as described in Higazi A A et al., Blood (1998), 92(6):2075-83). Briefly, 10 μL tPA or uPA were placed over the plasma clots for 2 hours at 37° C., photographed and the diameter of the wholes were determined.

[3] = target: T2, uPA (Homo sapiens, UniProt P00749); test: Fibrinolysis assay in human plasma derived clots, lysis by uPA; type: biochemical; details: uPA 50 nM; mutant 50 nM; FIG. 2A, 2B
T2 construct: Single-chain urokinase (uPA) was purified, characterized as previously reported; made in house
Protocol: as §1, §2

[4] = target: reteplase (Homo sapiens, UniProt P00750); test: Fibrinolysis assay in human plasma derived clots, lysis by reteplase; type: biochemical; details: reteplase 20 nM, mutant 10 nM, FIG. 2B
Protocol: as §1, §2

[5] = target: T3, WT tPA (Homo sapiens, UniProt P00750); test: Fibrinolysis assay in clots from fresh whole human blood monitored by thromboelastography (TEG), lysis by WT tPA; type: biochemical; details: WT tPA 10 nM; 50 or 500 nM tPA-S481A; FIG. 2C
T3 construct: purchased Genentech (South San Francisco, Calif.)
T3 sequence (P00750 36-562): as above
Protocol: (§3) Fibrinolysis Assay in Blood Clots Derived from Fresh Whole Human Blood
(§4) Clot viscoelastic properties were assessed by thromboelastography (TEG®, Haemoscope) and rotational thromboelastometry (ROTEM®, Pentapharm). Both systems use a vertical pin within a cup that contains the WB sample. In TEG®, the cup oscillates and the pin is stationary whereas in ROTEM®, the cup is stationary while the pin oscillates. As a clot forms between the cup and the pin, the reduction in transmitted rotation from the cup to the pin (TEG®) or impedance to the oscillatory movement of the pin (ROTEM®) is detected and a trace is generated.

[6] = target: T2, uPA; test: Fibrinolysis assay in clots from fresh whole human blood monitored by thromboelastography (TEG), lysis by uPA; type: biochemical; details: uPA 10 nM; 50 or 500 nM tPA-S481A; FIG. 2C
Protocol: as §3, §4

[7] = tested on: tPA; test: Plasminogen activator activity, chromogenic assay without fibrin, activation by tPA; type: biochemical, human; details: FIG. 2D; for plasminogen activation by tPA in the absence of fibrin, in the presence of TA: mutant 100 nM added together with TA
Protocol: (§5) Plasminogen Activator Activity
(§6) Plasminogen activator activity was determined by adding tPA (50 nM) or uPA (20 nM), to a reaction mixture containing Glu-plasminogen and the plasmin chromogenic substrate Spectrazyme PL (100 μM) in phosphate-buffered saline (PBS) at 37° C., and the light absorbance at 405 nm was measured continuously over time. The initial velocities of plasmin generation at the different conditions were calculated from the change in the A405 nm over time. The initial velocity of the reaction at each plasminogen concentration was obtained by calculating the change in the rate of A405 over different time intervals and the results were expressed as the change in optical density (ΔOD) per minute, which represents the slope of the initial velocity of plasminogen activation (Higazi A et al., J Biol Chem. (1995), 270(29):17375-80).

[8] = target: T2, uPA; test: Plasminogen activator activity, chromogenic assay without fibrin, activation by uPA; type: biochemical; details: FIG. 2D; for plasminogen activation by uPA in the absence of fibrin, in the presence of TA: mutant 100 nM added together with TA
Protocol: as §5, §6

[9] = tested on: WT mice subjected to CHI; test: Closed head injury (CHI) model of TBI in WT mice; type: in vivo, mouse
Protocol: Eight to twelve weeks old C57 mice obtained from Harlan, Israel. Mice were administered standard laboratory chow and water ad libitum, and kept in controlled temperature and light conditions. Animal experiments were carried out according to the guidelines of the Hebrew University-Institutional Committee for Care and Use of Laboratory Animals, and with the committee's approval.
(§7) Closed Head Injury (CHI) Model
(§8) Head trauma was induced by using a modified weight-drop device, as previously described (Chen Y. et al. (1996) J. Neurotrauma, 13:557-568). Briefly, after induction of ether anesthesia, a midline longitudinal incision was made, the skin was retracted and the skull was exposed. The left anterior frontal area was identified and a Teflon tipped cone (2-mm diameter) was placed 1 mm lateral to the midline, in the midcoronal plane. The head was held in place manually and a 75-g weight was dropped on the cone from a height of 18 cm, resulting in focal injury to the left hemisphere. After trauma, the mice received supporting oxygenation with 95% 02 for no longer than 2 min and were then returned to their cages. In sham controls only anesthesia and skin incision were carried out.

[10] = tested on: tPA-/- and uPA-/- mice subjected to CHI; test: Closed head injury (CHI) model in tPA-/- and uPA-/- mice; type: in vivo, mouse; details: WT-tPA or WT-uPA 5 mg/kg plus equimolar dose of mutant
Description: as §7, §8

[11] = tested on: mice treated with Coumadin and subjected to CHI; test: Closed head injury (CHI) in mice anticoagulated with warfarin (Coumadin); type: in vivo, mouse; details: WT mice, INR 2.5; tPA-S481A 1 mg/kg immediately after TBI; Hgb at 2 or 8 hrs; FIG. 6C
Description: as §7, §8

[12] = tested on: NMDA-Rs; test: Activation of NMDA-Rs by WT-tPA

B1: tPA-S^481A: catalytically inactive human tPA variant, Ser481 substituted to Ala; SEQ ID NO. 1 (SEQ ID NO. 12 with N-terminal RS) (protein, listed as Homo sapiens)
chain: GARSYQVICRDEKTQMIYQQHQSWLRPVLRSNRVEYCWCNSGRAQCHSVPVKSCSEPRCFNGGTCQQALYFSDFVCQCPEGFAGKCCEIDTRATCYEDQGISYRGTWSTAESGAECTNWNSSALAQKPYSGRRPDAIRLGLGNHNYCRNPDRDSKPWCYVFKAGKYSSEFCSTPACSEGNSDCYFGNGSAYRGTHSLTESGASCLPWNSMILIGKVYTAQNPSAQALGLGKHNYCRNPDGDAKPWCHVLKNRRLTWEYCDVPSCSTCGLRQYSQPQFRIKGGLFADIASHPWQAAIFAKHRRSPGERFLCGGILISSCWILSAAHCFQERFPPHHLTVILGRTYRVVPGEEEQKFEVEKYIVHKEFDDDTYDNDIALLQLKSDSSRCAQESSVVRTVCLPPADLQLPDWTECELSGYGKHEALSPFYSERLKEAHVRLYPSSRCTSQHLLNRTVTDNMLCAGDTRSGGPQANLHDACQGDAGGPLVCLNDGRMTLVGIISWGLGCGQKDVPGVYTKVTNYLDWIRDNMRP
- binding to plasminogen (complex formation) ([1]; in the absence of fibrin, 100 nM each): no complexes were formed
- binding to plasminogen (complex formation) ([1]; in the presence of fibrin, 100 nM each, immunoprecipitated with anti-plasminogen, detected with anti-tPA): binds to plasminogen only in the presence of fibrin; also recorded: formed a stable complex
- binding to plasminogen (complex formation) ([1]; with fibrin in the presence of 1 μM uPA): inhibited by uPA
- potency as inhibitor of fibrinolysis compared with TA ([2]; TA tested at its maximal inhibitory concentration, FIG. 2B): more potent inhibitors of fibrinolysis than TA
- lysis of human plasma derived clots by WT-tPA ([2]; WT-tPA 20 nM, mutant 50 nM, FIG. 2A, 2B): inhibited lysis
- lysis of human plasma derived clots by uPA [3]: inhibited lysis
- clot lysis induced by reteplase [4]: inhibit the clot lysis induced by reteplase
- clot lysis induced by reteplase ([4]; listed as tPA^Ser481Ala): inhibit the fibrinolysis
- lysis of clots from fresh whole human blood monitored by TEG, by WT tPA [5]: inhibited lysis
- lysis of clots from fresh whole human blood monitored by TEG, by uPA [6]: inhibited lysis
- plasminogen activation by tPA in the absence of fibrin, in the presence of TA [7]: inhibited the plasminogen activation induced by tPA
- plasminogen activation by tPA in the absence of fibrin, in the presence of TA ([7]; listed as tPA^Ser481Ala): inhibit plasminogen activation
- plasminogen activation by tPA in the absence of fibrin (change in OD per minute) ([7]; plasminogen 500 nM, WT-tPA 50 nM, mutants 100 nM or TA 200 nM alone): Neither tPA-S^481A nor tPA-S^481A-DS inhibited; also recorded: had no effect
- plasminogen activation by uPA in the absence of fibrin, in the presence of TA [8]: inhibited the activation of plasminogen by uPA
- plasminogen activation by uPA in the absence of fibrin, in the presence of TA ([8]; listed as tPA^Ser481Ala): inhibit plasminogen activation
- plasminogen activation by uPA in the absence of fibrin (change in OD per minute) ([8]; plasminogen 500 nM, uPA 20 nM, mutants 100 nM or TA 200 nM alone): Neither tPA-S^481A nor tPA-S^481A-DS inhibited; also recorded: had no effect
- intracerebral hemorrhage increased by injected WT-tPA post CHI ([9]; WT mice given WT-tPA 5 mg/kg immediately after CHI plus equimolar mutant): could be inhibited
- plasma levels of d-Dimers post CHI ([9]; WT mice, 1 mg/kg IV, measured 2 hours after CHI, FIG. 4A, 1 mg/kg): significantly attenuated the increase in d-Dimers; also recorded: inhibited the formation of d-Dimers
- platelet counts / thrombocytopenia post CHI ([9]; WT mice, 1 mg/kg IV, measured 2 hours after CHI, FIG. 4B, 1 mg/kg): prevented the development of thrombocytopenia; also recorded: inhibited the development of thrombocytopenia
- CSF fibrinolytic activity post CHI ([9]; WT mice, IV after CHI, CSF obtained 2 hours after CHI, tested on plasma derived clots): inhibited CSF fibrinolytic activity
- intracerebral hemorrhage (MRI, extravasation of Hgb) post CHI ([9]; WT mice, IV immediately after or 2 hrs after CHI, Hgb at 2 or 8 hrs, MRI at 24 hrs): significantly attenuated the expansion of intracerebral hemorrhage; also recorded: inhibited
- inhibition of intracerebral hemorrhage compared with combination of TA and aprotinin ([9]; combination in optimal concentrations, FIG. 3B): comparable to the inhibition induced by a combination of TA and aprotinin
- neuroprotection (neurological severity score, NSS) ([9]; given 2 hrs after CHI, FIG. 5): the difference in neuroprotection provided by the two tPA variants vanished
- neuroprotection (neurological severity score, NSS, 24 hours after CHI) ([9]; given IV immediately after CHI, 1 mg/kg, FIG. 5): exerts neuroprotection
- potency as inhibitor of intracerebral hemorrhage compared with TA or aprotinin ([9]; optimal concentrations of TA or aprotinin, FIG. 3B): more potent inhibitors of intracerebral hemorrhage than optimal concentrations of TA or aprotinin
- expansion of post traumatic ICH in knock-out mice given exogenous WT-tPA or WT-uPA [10]: inhibited the expansion of the post traumatic ICH
- post-traumatic intracerebral hemorrhage (brain hemoglobin) in warfarin-anticoagulated mice [11]: almost totally inhibited
- activation of NMDA-Rs by WT-tPA [12]: inhibited activation of NMDA-Rs by WT-tPA
